From patent EP4818210A1

Experiments:
[1] = target: Her2/ERBB2 Protein, Human, Recombinant (ECD, His Tag) (human) (UniProt P04626); assay: ELISA, control on human HER2 antigen
[2] = target: Her2/ERBB2 Protein, Human, Recombinant (ECD, His Tag) (human) (UniProt P04626); assay: ELISA, E. coli lysate supernatant on human HER2 antigen

OD450 [1] [OD450] | OD450 [2] [OD450] | Molecule
0.073 |  | Irrelevant
 | 1.03 | M26H2-3134 (VHH) VHH: QVQLVESGGGMVQPGGSLRLSCAASGITFRHYTMSWYRQAPGKERELVASITYGGVTTNYADSVKGRFTLSRDDAKTTAYLQMTGLKPEDTAVYYCHADWTAAGLNHWGQGTQVTVSS
 | 0.804 | M26H2-2002 (VHH) VHH: QVQLVESGGGLVQPGGSLRLSCAASGFIFGNYPMNWYRQAPGKEREFVAVITRDGGVTRYAASVKGRFTITRDNAKNTVFLQMNSLKLEDTAVYYCHNPNYNAWGQGTQVTVAS
